Here are results for 3 molecules from article PMC10716038, “Talin and kindlin use integrin tail allostery and direct binding to activate integrins” (Nature Structural & Molecular Biology, 2023).

B1: talin-1 head domain (THD1) (domain or fragment, UniProt P26039 1-405, looked up)
chain: MVALSLKISIGNVVKTMQFEPSTMVYDACRMIRERIPEALAGPPNDFGLFLSDDDPKKGIWLEAGKALDYYMLRNGDTMEYRKKQRPLKIRMLDGTVKTIMVDDSKTVTDMLMTICARIGITNHDEYSLVRELMEEKKDEGTGTLRKDKTLLRDEKKMEKLKQKLHTDDELNWLDHGRTLREQGVEEHETLLLRRKFFYSDQNVDSRDPVQLNLLYVQARDDILNGSHPVSFDKACEFAGFQCQIQFGPHNEQKHKAGFLDLKDFLPKEYVKQKGERKIFQAHKNCGQMSEIEAKVRYVKLARSLKTYGVSFFLVKEKMKGKNKLVPRLLGITKECVMRVDEKTKEVIQEWSLTNIKRWAASPKSFTLDFGDYQDGYYSVQTTEGEQIAQLIAGYIDIILKKKKS
notes: talin-1 (TLN1) head domain (THD), residues 1-405; murine TLN1 cDNA is named only for the cell lines; also called WT; source: E. coli (DE3) Rosetta 2, purified (IMAC, SEC); not shown: His10-SUMO, N-terminal, cleaved
B2: ATTO 488-labeled integrin β1 cytoplasmic tail (488–β1-CT) (peptide, UniProt P09055-1 758-798, looked up)
peptide: {ATTO 488}-HDRREFAKFEKEKMNAKWDTGENPIYKSAVTTVVNPKYEGK
notes: integrin β1A cytoplasmic tail (β1-CT), residues 758-798; the limits 758-798 are stated for the recombinant β1-CT; also called β1A-CT; source: synthetic peptide (MPIB Core Facility)
B3: ATTO 488-labeled talin-binding-impaired β3-CT Y772A (peptide, UniProt O54890 741-787, looked up)
peptide: {ATTO 488}-KLLITIHDRKEFAKFEEERARAKWDTANNPLAKEATSTFTNITYRGT
notes: integrin β3 cytoplasmic tail (β3-CT), Y772A; source: synthetic peptide (MPIB Core Facility)

Holding throughout (details): both partners purified
The target in experiment [1] is T1, biotinylated integrin β3 transmembrane and cytoplasmic tail polypeptide (β3-TM–CT) in nanodiscs (UniProt O54890 715-787, biotin (biotin-maleimide)).
T1 construct: integrin β3 TM and CT, residues 715-787; embedded in MSP2N2 nanodiscs with 10% PIP2 or PIP3 and 90% DMPC; held on streptavidin beads; also called b3; source: E. coli BL21 (DE3) Rosetta 2, inclusion bodies, purified (IMAC, cation exchange)
T1 sequence (looked up): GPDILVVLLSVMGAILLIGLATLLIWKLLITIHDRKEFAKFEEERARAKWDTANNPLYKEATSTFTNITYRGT
The experiment can be described thus: flow cytometry-based reporter-displacement assay (FC-RDA) on beads; biotinylated TM–CT in 10% PIP3/90% DMPC nanodiscs on streptavidin beads; reporter 100 nM 565–THD1, unlabelled competitor titrated; 20 mM Tris pH 7.5, 200 mM NaCl, room temperature; IC50 of individual experiments; charged lipids contribute to the binding. In general terms: In flow cytometry, cells or beads pass a laser one at a time.

Experiment [2] concerns the target T2, biotinylated integrin β1 transmembrane and cytoplasmic tail polypeptide (β1-TM–CT) in nanodiscs (UniProt P09055 726-798, biotin (biotin-maleimide)).
T2 construct: integrin β1 TM and CT, residues 726-798; embedded in MSP2N2 nanodiscs with 10% PIP2 or PIP3 and 90% DMPC, on average one TM–CT per nanodisc; held on streptavidin beads; also called b1; source: E. coli BL21 (DE3) Rosetta 2, inclusion bodies, purified (IMAC, cation exchange)
The experiment is described as follows: flow cytometry-based reporter-displacement assay (FC-RDA) on beads; biotinylated TM–CT in 10% PIP2/90% DMPC nanodiscs on streptavidin beads; reporter 50 nM 647–KIND2, unlabelled competitor titrated; 20 mM Tris pH 7.5, 200 mM NaCl, room temperature; IC50 of individual experiments; charged lipids contribute to the binding.

Experiment [3] addresses T2, biotinylated integrin β1 transmembrane …. The experiment is described as follows: flow cytometry-based reporter-displacement assay (FC-RDA) on beads; biotinylated TM–CT in PIP2-containing nanodiscs on streptavidin beads; reporter 647–KIND2-Y13A, unlabelled competitor titrated; IC50 of individual experiments.
For experiment [4] the target is unchanged. The experiment is described as follows: flow cytometry-based reporter-displacement assay (FC-RDA) on beads; biotinylated TM–CT in 10% PIP2/90% DMPC nanodiscs on streptavidin beads; reporter 100 nM 565–THD1, unlabelled competitor titrated; 20 mM Tris pH 7.5, 200 mM NaCl, room temperature; IC50 of individual experiments; charged lipids contribute to the binding.

The target in experiment [5] is B1. The experiment is described as follows: MST; unlabelled protein titrated to 50-200 nM ATTO 488-labelled β-CT peptide, no third protein; 20 mM Tris pH 7.5, 200 mM NaCl, 1 mM TCEP, 0.05% Tween-20; Kd of individual titrations (in S0002 mean and sd, n = 2).
In experiment [6] the target is B1. Described as above. This is another data set of the same source.
Experiment [7] deals with B1. The experiment is described as follows: MST; apparent; THD1 titrated to 488–β1-CT or 488–β3-CT in the presence of 500–1,100 µM KIND2-F0; MST buffer.
Experiment [8] concerns the target B1. The experiment is described as follows: MST; apparent; THD1 titrated to 488–β1-CT or 488–β3-CT in the presence of 300–400 µM β-CT-binding-impaired KIND2 Q614A,W615A (QW/AA); MST buffer.
Experiment [9] addresses B1. The experiment is described as follows: MST; apparent; THD1 titrated to 488–β1-CT or THD2 to 488–β3-CT in the presence of 30 µM KIND2; MST buffer.
Experiment [10] concerns the target T3, kindlin-2 (KIND2) (UniProt Q8CIB5 1-680).
T3 construct: kindlin-2 (KIND2), recombinant; with the F1 loop and the PH domain (unlike ΔKIND2); source: E. coli Rosetta, purified (IMAC, SEC); not shown: His10-SUMO, N-terminal, cleaved
T3 sequence (looked up): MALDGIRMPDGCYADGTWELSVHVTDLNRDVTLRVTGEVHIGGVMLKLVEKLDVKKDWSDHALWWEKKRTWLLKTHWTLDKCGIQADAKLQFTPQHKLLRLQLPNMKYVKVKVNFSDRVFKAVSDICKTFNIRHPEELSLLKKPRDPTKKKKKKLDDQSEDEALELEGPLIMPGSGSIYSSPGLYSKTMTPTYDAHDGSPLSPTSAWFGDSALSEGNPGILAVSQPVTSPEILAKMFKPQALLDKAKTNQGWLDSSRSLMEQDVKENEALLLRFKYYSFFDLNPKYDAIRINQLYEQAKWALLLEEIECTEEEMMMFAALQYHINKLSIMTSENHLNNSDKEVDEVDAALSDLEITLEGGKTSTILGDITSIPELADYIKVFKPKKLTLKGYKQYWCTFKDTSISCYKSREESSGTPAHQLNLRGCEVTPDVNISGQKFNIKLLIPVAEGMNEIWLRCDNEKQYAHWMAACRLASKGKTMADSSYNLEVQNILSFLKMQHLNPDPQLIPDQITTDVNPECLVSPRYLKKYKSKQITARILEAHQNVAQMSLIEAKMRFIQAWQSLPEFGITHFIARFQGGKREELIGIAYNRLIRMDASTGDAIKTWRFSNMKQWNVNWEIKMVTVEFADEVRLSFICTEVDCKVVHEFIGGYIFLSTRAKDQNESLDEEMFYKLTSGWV
The experiment is described as follows: MST; unlabelled protein titrated to 50-200 nM ATTO 488-labelled β-CT peptide, no third protein; 20 mM Tris pH 7.5, 200 mM NaCl, 1 mM TCEP, 0.05% Tween-20; Kd of individual titrations (in S0002 mean and sd, n = 2).

Experiment [11] addresses T3, kindlin-2 (KIND2). The experiment can be described thus: MST; apparent; KIND2 titrated to 488–β3-CT Y772A in the presence of 500 µM THD1; MST buffer.

“And” between values parts separate entries of the source, which are not always exact repeats. Equal entries are not always repeated. No end group written: not given here.

The IC50 is the concentration that gives 50% inhibition. A higher IC50 goes with weaker potency in that assay. Turning to B1, the IC50 in [1] is 0.053 µM and 0.07 µM and 0.127 µM; in experiment [2], 0.249 µM and 0.192 µM and 0.087 µM; in experiment [3], 0.321 µM and 0.39 µM and 0.506 µM and 0.206 µM; in [4], 0.049 µM and 0.091 µM and 0.089 µM and 0.062 µM.

B2: the Kd was 152 µM in experiment [5]; 128 µM and 152 µM and 141 µM in [6]; 173 µM and 137 µM and 177 µM in [7]; 148 µM and 212 µM and 195 µM in [8]; 159 µM and 173 µM and 127 µM in experiment [9].

Turning to B3, the Kd in experiment [10] was 20.3 µM and 13.8 µM and 12.5 µM; in [11], 17.9 µM and 15.3 µM and 23.3 µM and 13.4 µM.
